Experimental data published in the supplement of paper PMC9876800.

Tested on: peptide library, one residue held at a place counted from the S/T acceptor
Experiment: relative phosphorylation of the sub-library (ratio to the mean residue at this position); human; higher = residue favoured
Procedure, shortened: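 Spots on streptavidin membranes were phosphorimaged and quantified by densitometry to measure phosphorylation of biotinylated degenerate peptide sub-libraries by purified recombinant kinases, human or orthologue constructs. The reactions ran in 384-well plates for 90 min under kinase-specific conditions, with peptides at 50 μM and 50 μM ATP spiked with γ-32P-ATP. Relative sub-library phosphorylation is the ratio to the mean residue at that position.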

Chain of MOK, construct: aa1-343 (Q9UQ07 1-343, looked up): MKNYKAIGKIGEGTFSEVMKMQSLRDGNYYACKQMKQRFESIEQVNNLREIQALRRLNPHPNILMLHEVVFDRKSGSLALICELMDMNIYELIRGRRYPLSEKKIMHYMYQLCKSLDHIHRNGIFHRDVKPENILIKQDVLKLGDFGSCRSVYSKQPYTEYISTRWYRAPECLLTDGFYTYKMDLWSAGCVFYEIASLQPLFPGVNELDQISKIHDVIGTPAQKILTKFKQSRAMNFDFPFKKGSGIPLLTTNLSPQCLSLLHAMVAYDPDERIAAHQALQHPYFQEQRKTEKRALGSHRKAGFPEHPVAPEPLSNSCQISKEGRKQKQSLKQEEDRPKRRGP
Chain of TTK, construct: Full length (P33981 whole entry, looked up): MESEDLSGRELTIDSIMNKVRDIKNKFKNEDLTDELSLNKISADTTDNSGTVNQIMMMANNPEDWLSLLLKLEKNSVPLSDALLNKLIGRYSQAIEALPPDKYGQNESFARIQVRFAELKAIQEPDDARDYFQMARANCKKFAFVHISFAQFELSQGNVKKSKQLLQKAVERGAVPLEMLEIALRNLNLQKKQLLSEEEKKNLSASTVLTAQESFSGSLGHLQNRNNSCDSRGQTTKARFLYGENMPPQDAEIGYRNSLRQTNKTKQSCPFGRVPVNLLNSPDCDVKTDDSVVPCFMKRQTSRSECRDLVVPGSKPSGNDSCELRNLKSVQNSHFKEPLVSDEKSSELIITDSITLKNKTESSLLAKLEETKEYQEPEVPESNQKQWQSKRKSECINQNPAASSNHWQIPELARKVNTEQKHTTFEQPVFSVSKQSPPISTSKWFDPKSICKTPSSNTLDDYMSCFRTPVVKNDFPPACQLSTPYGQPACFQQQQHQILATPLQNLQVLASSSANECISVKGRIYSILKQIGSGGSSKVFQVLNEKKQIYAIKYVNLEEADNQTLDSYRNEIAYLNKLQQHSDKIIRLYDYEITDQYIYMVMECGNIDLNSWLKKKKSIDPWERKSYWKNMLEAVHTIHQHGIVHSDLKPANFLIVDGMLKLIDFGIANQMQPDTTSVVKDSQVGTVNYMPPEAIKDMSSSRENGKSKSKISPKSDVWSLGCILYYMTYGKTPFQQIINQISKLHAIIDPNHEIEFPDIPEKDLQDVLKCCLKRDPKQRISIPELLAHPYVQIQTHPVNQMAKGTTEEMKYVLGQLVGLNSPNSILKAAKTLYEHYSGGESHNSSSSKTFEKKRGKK
Chain of MASTL, construct: Full length (Q96GX5 whole entry, looked up): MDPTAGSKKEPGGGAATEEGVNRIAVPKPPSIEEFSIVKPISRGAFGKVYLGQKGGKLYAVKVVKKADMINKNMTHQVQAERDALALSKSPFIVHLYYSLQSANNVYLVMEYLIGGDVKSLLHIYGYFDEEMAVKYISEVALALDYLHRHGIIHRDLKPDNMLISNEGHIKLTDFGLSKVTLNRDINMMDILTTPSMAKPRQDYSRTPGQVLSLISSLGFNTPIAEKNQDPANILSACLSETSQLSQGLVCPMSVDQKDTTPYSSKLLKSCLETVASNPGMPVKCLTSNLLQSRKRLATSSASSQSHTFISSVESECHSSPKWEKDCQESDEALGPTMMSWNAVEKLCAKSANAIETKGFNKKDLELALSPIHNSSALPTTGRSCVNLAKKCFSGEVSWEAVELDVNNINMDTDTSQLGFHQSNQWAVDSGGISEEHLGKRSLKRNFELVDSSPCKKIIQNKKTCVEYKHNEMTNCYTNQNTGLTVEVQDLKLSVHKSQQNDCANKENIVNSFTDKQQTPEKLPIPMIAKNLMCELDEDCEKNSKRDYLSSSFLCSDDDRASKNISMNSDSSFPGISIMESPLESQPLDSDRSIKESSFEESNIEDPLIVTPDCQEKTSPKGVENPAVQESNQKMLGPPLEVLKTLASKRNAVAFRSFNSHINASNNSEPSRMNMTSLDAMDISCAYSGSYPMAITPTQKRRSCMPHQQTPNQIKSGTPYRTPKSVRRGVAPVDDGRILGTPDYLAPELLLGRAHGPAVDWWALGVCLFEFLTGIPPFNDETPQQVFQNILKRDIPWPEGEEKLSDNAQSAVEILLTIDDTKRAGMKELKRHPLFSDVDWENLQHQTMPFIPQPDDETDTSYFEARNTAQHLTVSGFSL
Chain of BRSK2, construct: Full length (Q8IWQ3 whole entry, looked up): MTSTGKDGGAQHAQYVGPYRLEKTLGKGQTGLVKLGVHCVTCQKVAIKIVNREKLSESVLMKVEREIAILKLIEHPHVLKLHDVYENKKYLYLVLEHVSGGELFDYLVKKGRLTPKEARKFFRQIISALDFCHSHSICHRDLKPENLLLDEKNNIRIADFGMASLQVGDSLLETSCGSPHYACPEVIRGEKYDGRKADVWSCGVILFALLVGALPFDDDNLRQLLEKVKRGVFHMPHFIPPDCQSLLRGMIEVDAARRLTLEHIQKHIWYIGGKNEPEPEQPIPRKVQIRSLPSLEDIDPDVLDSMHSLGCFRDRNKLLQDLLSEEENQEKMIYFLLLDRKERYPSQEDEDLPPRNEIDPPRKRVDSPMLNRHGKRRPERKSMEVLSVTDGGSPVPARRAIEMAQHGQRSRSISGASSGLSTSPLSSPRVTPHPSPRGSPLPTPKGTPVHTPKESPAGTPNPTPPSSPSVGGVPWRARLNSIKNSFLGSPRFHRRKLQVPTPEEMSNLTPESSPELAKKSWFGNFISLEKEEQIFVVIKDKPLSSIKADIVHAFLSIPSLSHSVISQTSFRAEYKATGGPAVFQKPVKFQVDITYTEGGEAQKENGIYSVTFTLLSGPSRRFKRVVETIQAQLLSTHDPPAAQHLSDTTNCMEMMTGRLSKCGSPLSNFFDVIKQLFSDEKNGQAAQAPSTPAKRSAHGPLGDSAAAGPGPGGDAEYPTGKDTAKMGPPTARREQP

MOK, construct: aa1-343 (from UniProt Q9UQ07)
relative phosphorylation
Settings	at +1	at +2	at +3	at +4	at -1	at -2	at -3	at -4	at -5
A fixed	2.2	1.04	1.2	0.799	1.12	1.03	0.724	0.79	0.816
D fixed	0.137	0.59	0.511	0.519	0.269	0.168	0.231	0.441	0.526
E fixed	0.15	0.672	0.507	0.506	0.332	0.208	0.246	0.506	0.552
F fixed	0.2	0.836	1.02	0.891	0.786	0.328	0.314	0.739	1.02
G fixed	1.23	1.51	1.52	1.34	1.36	0.824	0.645	0.89	1.04
H fixed	0.389	1.44	1.28	1.09	1.19	0.418	0.564	0.862	1.09
I fixed	0.215	0.624	0.704	0.855	0.511	0.863	0.54	0.73	0.865
K fixed	0.574	1.15	1.15	1.44	1.61	0.8	1.27	1.43	1.36
L fixed	0.204	0.822	0.848	0.904	0.712	1.2	0.587	0.739	0.761
M fixed	0.253	0.935	0.967	1.05	1.22	0.675	0.501	0.946	0.903
N fixed	0.32	0.999	0.93	1.06	0.672	0.498	0.452	0.628	0.784
P fixed	6.41	1.12	1.13	1.11	1.33	5.97	1.26	0.96	1.11
Q fixed	0.567	1.21	0.857	0.964	1	0.629	0.563	0.818	0.916
R fixed	3.21	1.58	1.53	1.74	2.2	1.81	7.98	4.34	2.3
V fixed	0.515	0.551	0.668	0.801	0.631	0.918	0.441	0.622	0.622
W fixed	0.215	0.884	0.985	1.02	0.976	0.331	0.316	0.811	1.02
Y fixed	0.21	1.04	1.19	0.921	1.08	0.323	0.377	0.745	1.31
pThr fixed	0.333	0.394	0.486	0.512	0.236	0.431	0.358	0.532	0.775
pTyr fixed	0.334	0.447	0.651	0.45	0.354	0.268	0.329	0.473	0.804

MASTL, construct: Full length (from UniProt Q96GX5)
relative phosphorylation
Settings	at +1	at +2	at +3	at +4	at -1	at -2	at -3	at -4	at -5
A fixed	0.775	1.04	0.823	1.03	0.921	0.862	0.89	1.04	1.22
D fixed	0.64	0.706	0.711	0.972	0.826	0.719	0.63	0.69	0.66
E fixed	0.62	0.693	0.766	0.951	0.769	0.611	0.679	0.717	0.639
F fixed	1.95	1.38	1.3	0.962	0.948	1.74	1.13	1.02	1
G fixed	1.59	0.711	1.14	0.867	1.46	1.13	1.02	1.2	1.28
H fixed	0.772	0.99	0.949	1.07	1.01	1.51	1.43	1.31	1.47
I fixed	1.21	1.23	1.19	0.878	0.543	0.585	0.66	0.696	0.841
K fixed	0.534	0.531	0.573	0.841	0.87	0.579	0.927	0.956	0.889
L fixed	1.06	0.959	1.1	0.941	1.06	0.579	0.715	0.656	0.941
M fixed	1.71	1.15	1.15	1.02	1.25	0.846	1	0.938	0.94
N fixed	0.789	0.95	0.749	1.05	1.06	1.16	1.03	1.34	1.05
P fixed	0.664	0.65	0.704	1.31	1.59	0.804	1.01	0.965	1.07
Q fixed	1.09	0.761	0.804	1.09	1.15	0.839	0.985	0.913	0.841
R fixed	0.614	0.579	0.555	0.726	0.889	0.767	1.55	1	0.953
V fixed	0.944	1.16	0.875	0.831	0.649	0.558	0.678	0.703	0.909
W fixed	1.03	1.6	2.11	1.28	0.913	1.82	1.23	1.35	1.27
Y fixed	1.01	1.9	1.5	1.18	1.1	1.9	1.42	1.49	1.03
pThr fixed	1	0.912	0.984	1.27	0.833	0.827	0.939	0.844	0.94
pTyr fixed	0.8	1.07	0.973	0.944	0.711	0.771	0.812	0.834	0.784

BRSK2, construct: Full length (from UniProt Q8IWQ3)
relative phosphorylation
Settings	at +1	at +2	at +3	at +4	at -1	at -2	at -3	at -4	at -5
A fixed	0.653	0.569	0.726	0.598	1.07	1.91	0.829	1.14	1.01
D fixed	0.341	0.505	1.34	0.41	0.539	0.816	0.264	0.367	0.357
E fixed	0.396	0.471	0.574	0.299	0.433	0.659	0.257	0.435	0.355
F fixed	2.02	1.69	1.95	1.3	0.867	1.19	0.728	0.686	1.2
G fixed	0.53	0.464	0.85	0.562	1.3	1.35	0.703	1.16	0.964
H fixed	0.802	1.49	1.25	0.718	1.18	1.05	1.31	1.3	0.842
I fixed	1.03	0.679	0.518	3.23	0.674	0.591	0.389	0.522	1.08
K fixed	0.624	0.337	0.775	0.727	1.53	1.04	2.71	2.04	1.35
L fixed	1.17	0.739	0.609	3.06	0.956	0.564	0.427	0.58	1.27
M fixed	3.01	0.951	0.675	1.47	1.14	0.664	0.589	0.881	1.33
N fixed	0.925	1.03	2.68	0.671	1.02	0.843	0.681	0.752	0.599
P fixed	0.203	0.489	0.403	0.654	1.55	0.833	0.687	1.58	0.954
Q fixed	1.19	1.01	1.07	0.661	1.12	0.701	0.861	0.913	0.817
R fixed	1.07	0.416	0.916	0.599	1.2	1.35	4.56	2.14	1.71
V fixed	0.914	0.567	0.499	0.876	0.781	0.978	0.405	0.678	0.801
W fixed	0.924	1.98	1.09	0.607	0.642	1.34	0.886	0.976	1.12
Y fixed	1.2	3.62	1.08	0.559	1.01	1.13	0.711	0.844	1.24
pThr fixed	0.909	0.54	0.378	0.452	0.332	0.451	0.401	0.624	0.6
pTyr fixed	0.419	0.504	0.571	0.287	0.899	0.366	0.376	0.533	0.594

PKN3, construct: Full length (from UniProt Q6P5Z2)
relative phosphorylation
Settings	at +1	at +2	at +3	at +4	at -1	at -2	at -3	at -4	at -5
A fixed	0.497	0.811	0.681	0.955	0.874	1.12	0.679	1.07	0.92
D fixed	0.614	0.652	0.765	0.967	1.01	0.684	0.44	0.823	0.801
E fixed	0.554	0.784	0.848	0.887	1.06	0.791	0.504	1.12	0.719
F fixed	4.24	0.552	0.883	0.671	0.682	0.703	0.562	0.717	0.839
G fixed	0.625	0.52	0.918	1.13	1.12	1.21	0.898	1.08	0.973
H fixed	0.667	1.55	1.32	1.3	1.21	1.12	1.06	1.09	1.12
I fixed	1.14	0.724	0.782	0.714	0.444	0.511	0.427	0.776	1.18
K fixed	0.802	1.67	1.2	1.64	1.55	1.75	1.54	1.55	1.1
L fixed	0.951	0.864	0.894	0.738	0.77	0.569	0.413	0.775	1.34
M fixed	1.83	0.728	0.833	0.858	0.854	0.771	1.28	1.07	0.97
N fixed	0.78	1.17	1	1.19	1.48	1.33	0.713	1.25	1.06
P fixed	0.426	0.432	0.736	1.36	1.56	0.721	0.899	0.924	0.955
Q fixed	0.88	0.806	1.11	1.15	1.36	1.34	0.786	0.922	0.789
R fixed	0.74	3.4	1.4	1.02	1.12	2.24	5.22	1.4	1.5
V fixed	0.892	0.753	0.807	0.716	0.558	0.711	0.496	0.801	1.07
W fixed	0.606	0.683	1.32	0.883	0.524	0.782	0.517	0.85	0.828
Y fixed	0.751	0.898	1.49	0.823	0.812	0.646	0.561	0.786	0.833
pThr fixed	0.747	0.671	0.69	0.944	0.866	0.755	0.532	0.645	0.581
pTyr fixed	0.695	0.952	0.825	0.807	0.585	0.662	0.902	0.676	0.781

TTK, construct: Full length (from UniProt P33981)
relative phosphorylation
Settings	at +1	at +2	at +3	at +4	at -1	at -2	at -3	at -4	at -5
A fixed	0.968	0.742	0.497	0.739	0.798	0.532	0.845	0.952	0.97
D fixed	0.397	0.389	0.331	0.48	1.22	4.68	2.19	1.55	1.15
E fixed	0.883	0.339	0.26	0.39	0.866	2.91	1.94	1.47	0.983
F fixed	0.541	0.748	1.48	0.895	0.671	0.373	0.55	0.76	0.791
G fixed	1.18	0.501	0.552	1.15	0.568	0.922	1.32	1.24	1.26
H fixed	0.952	1.44	0.97	1.42	1.78	0.675	1.18	1.05	1.25
I fixed	1.29	0.784	1.89	0.746	0.696	0.294	0.419	0.51	0.604
K fixed	1.28	1.61	0.956	1.76	1.26	0.456	0.966	1.02	1.1
L fixed	1.02	0.802	2.26	0.738	0.849	0.336	0.537	0.694	0.757
M fixed	1.49	1.02	1.29	0.868	0.905	0.453	0.651	0.865	0.884
N fixed	0.685	1.29	0.723	1.28	1.47	1.82	1.29	1.22	1.1
P fixed	0.275	0.773	0.532	0.823	0.891	0.504	0.959	0.984	1.39
Q fixed	1.71	0.974	0.748	1.1	1.16	0.873	0.975	0.981	0.857
R fixed	1.51	1.91	1.01	1.64	1.15	0.854	1.29	1.16	1.09
V fixed	1.45	0.963	1.23	0.651	0.837	0.337	0.487	0.675	0.784
W fixed	0.704	1.75	1.29	1.21	0.766	0.529	0.66	0.964	0.984
Y fixed	0.659	0.971	0.984	1.12	1.12	0.453	0.734	0.899	1.04
pThr fixed	0.734	0.393	0.576	0.455	0.7	1.12	1.75	1.37	1.41
pTyr fixed	0.362	0.27	0.696	0.45	0.787	0.765	0.997	0.781	1.47
